Data set [1] has as its target pseudoacetylated tau (244:378) P301L 3xKQ probe with (EAAAK)3 linker to mTurquoise2 or mNeonGreen (UniProt P10636).
Data set [2] concerns the molecule itself. The data set can be described thus: FRET or BRET; FRET between the two differently labelled copies of the probe, read by flow cytometry; HEK293T transiently transfected, exposed 24 h to serial dilutions of human AD brain extract with Lipofectamine 2000 (1% vol/vol) in Opti-MEM.

Data on 2 molecules can be found in article PMC10408046, “Specific detection of tau seeding activity in Alzheimer’s disease using rationally designed biosensor cells” (Molecular Neurodegeneration, 2023).

“seeding-competent tau from human Alzheimer's disease brain (from UniProt P10636 1-758) (natural protein)”: the seeding signal (FRET, flow cytometry) in the novel biosensor HEK293T clone 18: tau-immunodepleted AD brain material against the starting material in data set [1] is 82.3%.

B1: pseudoacetylated tau (244:378) P301L 3xKQ probe with (EAAAK)3 linker to mTurquoise2 or mNeonGreen (domain or fragment)
chain: QTAPVPMPDLKNVKSKIGSTENLKHQPGGGKVQIINKKLDLSNVQSKCGSKDNIKHVLGGGSVQIVYQPVDLSQVTSQCGSLGNIHHKPGGGQVEVKSEKLDFKDRVQSKIGSLDNITHVPGGGNKKIETHKLTFEAAAKEAAAKEAAAK
notes: microtubule associated protein tau, amino acids 244 to 378, P301L and lysines 311, 317 and 321 changed to glutamines to mimic acetylation (3xKQ); Both labelled copies come from one construct with a T2A self-cleaving peptide; a small amount of uncleaved polypeptide was seen by western blot; also called 3xKQ mutant; pseudoacetylated (EAAAK)3 probe; source: HEK293T, transiently transfected, in cells
As for B1, the “fold increase in FRET-positive cells against the probe without 3xKQ” value in data set [2] is around 3 fold.
